{"source": "patent US20170112792", "key": {"Erk1, P27361": {"biological_target": "T1, Erk1, P27361", "T1 chain": "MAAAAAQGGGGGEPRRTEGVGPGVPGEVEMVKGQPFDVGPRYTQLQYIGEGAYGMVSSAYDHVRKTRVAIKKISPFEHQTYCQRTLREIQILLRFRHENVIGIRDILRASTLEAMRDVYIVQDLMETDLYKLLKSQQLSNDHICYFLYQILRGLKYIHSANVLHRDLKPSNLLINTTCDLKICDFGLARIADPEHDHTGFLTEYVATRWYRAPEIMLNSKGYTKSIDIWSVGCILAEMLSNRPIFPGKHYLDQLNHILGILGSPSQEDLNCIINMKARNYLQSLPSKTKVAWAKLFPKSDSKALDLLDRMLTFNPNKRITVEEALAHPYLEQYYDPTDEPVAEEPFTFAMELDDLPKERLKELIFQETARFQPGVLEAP"}}}
{"protein": "Flag-Rab2A (protein) MAYAYLFKYIIIGDTGVGKSCLLLQFTDKRFQPVHDLTIGVEFGARMITIDGKQIKLQIWDTAGQESFRSITRSYYRGAAGALLVYDITRRDTFNHLTTWLEDARQHSNSNMVIMLIGNKSDLESRREVKKEEGEAFAREHGLIFMETSAKTASNVEEAFINTAKEIYEKIQEGVFDINNEANGIKIGPQHAATNATHAGNQGGQQAGGGCC", "values": [{"measurement": "Erk1/2 phosphorylation", "setting": "Erk2, P28482", "value": "Flag-Rab2A expression restored Erk1/2 phosphorylation in a dose-dependent manner"}, {"measurement": "Erk1/2 phosphorylation", "setting": "Erk1, P27361", "value": "Flag-Rab2A expression restored Erk1/2 phosphorylation in a dose-dependent manner"}]}
